Patent publication US20250090676A1 (SUTRO BIOPHARMA, published 2025)
Positions count from the first letter of the chain named.

B1: SRP1848-A01 (antibody, V domains shown)
VH: EVQLVESGGGLVQPGGSLRLSCAASGFNITRYSIHWVRQAPGKGLEWVAGILPESGGTSYADSVKGRFTISADTSKNTAYLQMNSLRAEDTAVYYCARHIYPWDWFSNYVLDYWGQGTLVTVSS
VL: not shown
notes: HC variant paired with trastuzumab LC, cell-free expressed, HIS- and FLAG-tagged; also called Antibody 1
B2: SRP1848-F04 (antibody, V domains shown)
VH: EVQLVESGGGLVQPGGSLRLSCAASGFNISNYSIHWVRQAPGKGLEWVGEIYPIDGITDYADSVKGRFTISADTSKNTAYLQMNSLRAEDTAVYYCARGSWFWRSGYGYYLDYWGQGTLVTVSS
VL: not shown
notes: HC variant paired with trastuzumab LC, cell-free expressed, HIS- and FLAG-tagged; also called Antibody 39
B3: SRP1848-A06 (antibody, V domains shown)
VH: B2 VH with S30G, Y32S, S33Y, E50G, Y52T, I57N, S100A, F102S, L111I
VL: not shown
notes: HC variant paired with trastuzumab LC, cell-free expressed, HIS- and FLAG-tagged; also called Antibody 4
B4: SRP1848-A04 (antibody, V domains shown)
VH: B2 VH with S30D, N31Q, Y32S, E50V, I54V, I57T, S100A, F102S, L111I
VL: not shown
notes: HC variant paired with trastuzumab LC, cell-free expressed, HIS- and FLAG-tagged; also called Antibody 3
B5: SRP1848-E03 (antibody, V domains shown)
VH: EVQLVESGGGLAQPGGSLRLSCAASGFNIGNYYIHWVRQAPGKGLEWVGGITPRDGFTDYADSVKGRFTISADTSKNTAYLQVNSLRAEDTAVYYCARGSWSWPAGHSYYLDYWGQGTLVTVSS
VL: not shown
notes: IgG with common trastuzumab LC, cell-free expressed, HIS- and FLAG-tagged; also called Antibody 33
B6: SRP1848-E06 (antibody, V domains shown)
VH: EVQLVESGGGLVQPSGSLRLSCAASGFNINRYYIHWVRQAPGKGLEWVGGITPNDGYTDYADSVEGRFTTSADTSKNTAYLQMNSLRAEDTAVYYCARGTWSWPSGHSYYLDYWGQGTLVTVSS
VL: not shown
notes: IgG with common trastuzumab LC, cell-free expressed, HIS- and FLAG-tagged; also called Antibody 35
B7: SRP1848-D03 (antibody, V domains shown)
VH: EVQLVESGGGVVQPGGSLRLSCAASGFNIRYFSIHWVRQAPGKGLEWVGDIFPNDGSTDYADSVKGRFTISADTSKNTAYLQMNSLRAEETAVYYCARGHWSWPSGYWYYLDYWGQGTLVTVSS
VL: not shown
notes: IgG with common trastuzumab LC, cell-free expressed, HIS- and FLAG-tagged; also called Antibody 25
B8: SRP1848-G04 (antibody, V domains shown)
VH: EVQLVESGGGLVQPGGSLRLSCAASGFNIHSTDIHWVRQAPGKGLEWVAYITPAGGATFYADSVKGRFTISADTSKNTAYLQMNSLRAEDTAVYYCARYPYWFAGYMDYWGQGTLVTVSS
VL: not shown
notes: IgG with common trastuzumab LC, cell-free expressed, HIS- and FLAG-tagged; also called Antibody 49
B9: SRP1848-G09 (antibody, V domains shown)
VH: B8 VH with H30R, S31G, Y99H, P100E, A104S
VL: not shown
notes: IgG with common trastuzumab LC, cell-free expressed, HIS- and FLAG-tagged; also called Antibody 52
B10: SRP1848-G10 (antibody, V domains shown)
VH: B8 VH with G16S, H30R, F59Y, M107I
VL: not shown
notes: IgG with common trastuzumab LC, cell-free expressed, HIS- and FLAG-tagged; also called Antibody 53
B11: SRP1848-G07 (antibody, V domains shown)
VH: B8 VH with F59W, Y101F
VL: not shown
notes: IgG with common trastuzumab LC, cell-free expressed, HIS- and FLAG-tagged; also called Antibody 51
B12: SRP1848-G06 (antibody, V domains shown)
VH: B8 VH with H30R, F59Y, S63N, Y99Q
VL: not shown
notes: IgG with common trastuzumab LC, cell-free expressed, HIS- and FLAG-tagged; also called Antibody 50
B13: SRP1848-G11 (antibody, V domains shown)
VH: B8 VH with H30S, F59W, A104S
VL: not shown
notes: IgG with common trastuzumab LC, cell-free expressed, HIS- and FLAG-tagged; also called Antibody 54
B14: SRP1848-F07 (antibody, V domains shown)
VH: B2 VH with Y32H, I54N, R87S, F102D, G108S
VL: not shown
notes: IgG with common trastuzumab LC, cell-free expressed, HIS- and FLAG-tagged; also called Antibody 42
B15: SRP1848-F11 (antibody, V domains shown)
VH: B2 VH with Y32N, S33Y, E50G, Y52T, I57N, K76M, F102Y, S105A, T118A
VL: not shown
notes: IgG with common trastuzumab LC, cell-free expressed, HIS- and FLAG-tagged; also called Antibody 46
B16: SRP1848-H01 (antibody, V domains shown)
VH: B2 VH with S30R, N31T, Y32Q, V48I, E50D, Y52F, F102S, R104P, Y107M, G108D
VL: not shown
notes: IgG with common trastuzumab LC, cell-free expressed, HIS- and FLAG-tagged; also called Antibody 55
B17: SRP1848-F08 (antibody, V domains shown)
VH: B2 VH with S25G, Y32H, L45V, I54V, Q82R, F102Y, R104Q, G108S
VL: not shown
notes: IgG with common trastuzumab LC, cell-free expressed, HIS- and FLAG-tagged; also called Antibody 43
B18: SRP1848-F10 (antibody, V domains shown)
VH: B2 VH with Y32N, E50S, Y52F, I54N, I57Y
VL: not shown
notes: IgG with common trastuzumab LC, cell-free expressed, HIS- and FLAG-tagged; also called Antibody 45
B19: SRP1848-E07 (antibody, V domains shown)
VH: B2 VH with S30R, N31K, Y32S, Y52F, I54Y, I57S, S63N, S100A, F102S, L111I
VL: not shown
notes: IgG with common trastuzumab LC, cell-free expressed, HIS- and FLAG-tagged; also called Antibody 36
B20: SRP1848-F01 (antibody, V domains shown)
VH: B2 VH with S30R, N31T, E50S, Y52F, I54N, I57T, F102A, S105A, G108S
VL: not shown
notes: IgG with common trastuzumab LC, cell-free expressed, HIS- and FLAG-tagged; also called Antibody 37
B21: SRP1848-E01 (antibody, V domains shown)
VH: B5 VH with A12V, G30T, Y32K, R54F, V83M, H107Y, S108G, L111Q
VL: not shown
notes: IgG with common trastuzumab LC, cell-free expressed, HIS- and FLAG-tagged; also called Antibody 31
B22: SRP1848-G01 (antibody, V domains shown)
VH: B2 VH with N31R, Y32H, E50W, Y52A, I54N, I57S, F102A, G108S, Y110F
VL: not shown
notes: IgG with common trastuzumab LC, cell-free expressed, HIS- and FLAG-tagged; also called Antibody 47
B23: SRP1848-F05 (antibody, V domains shown)
VH: B2 VH with N31K, Y32S, I54N, I57S, F102A, G108S, Y110F
VL: not shown
notes: IgG with common trastuzumab LC, cell-free expressed, HIS- and FLAG-tagged; also called Antibody 40
B24: SRP1848-E05 (antibody, V domains shown)
VH: B2 VH with L20V, S30G, N31V, S33Y, E50G, Y52T, I54N, I57Y, S100F, F102A
VL: not shown
notes: IgG with common trastuzumab LC, cell-free expressed, HIS- and FLAG-tagged; also called Antibody 34
B25: SRP1848-F09 (antibody, V domains shown)
VH: B2 VH with Y32H, S33Y, E50G, Y52S, I54L, I57Y, S100A, F102S, L111I
VL: not shown
notes: IgG with common trastuzumab LC, cell-free expressed, HIS- and FLAG-tagged; also called Antibody 44
B26: SRP1848-F02 (antibody, V domains shown)
VH: B2 VH with S30R, N31T, E50S, Y52F, I54N, I57T, F68L, F102S, R104Q, S105A
VL: not shown
notes: IgG with common trastuzumab LC, cell-free expressed, HIS- and FLAG-tagged; also called Antibody 38
B27: SRP1848-E02 (antibody, V domains shown)
VH: B2 VH with S30G, N31K, I54N, I57N, F102S
VL: not shown
notes: IgG with common trastuzumab LC, cell-free expressed, HIS- and FLAG-tagged; also called Antibody 32
B28: SRP1848-D10 (antibody, V domains shown)
VH: B2 VH with N31R, Y32N, E50W, Y52S, I54N, I57T, T74G, S100A, F102S, L111I
VL: not shown
notes: IgG with common trastuzumab LC, cell-free expressed, HIS- and FLAG-tagged; also called Antibody 30
B29: SRP1848-F06 (antibody, V domains shown)
VH: B2 VH with N31L, Y32S, S33Y, E50G, Y52S, I57N, S100F, F102A
VL: not shown
notes: IgG with common trastuzumab LC, cell-free expressed, HIS- and FLAG-tagged; also called Antibody 41
B30: SRP1848-G03 (antibody, V domains shown)
VH: B5 VH with A12V, G30S, N31T, R54S, F68S, V83M, A105S, S108G, Y110F
VL: not shown
notes: IgG with common trastuzumab LC, cell-free expressed, HIS- and FLAG-tagged; also called Antibody 48

Biological target: T1, cynomolgus monkey folate receptor alpha (cynomolgus monkey, UniProt P15328 25-234 (human entry))
T1 construct: Expressed on the surface of stably transfected CHO cells; also called cyno FolR1; CHO-cyno FolR1
Assay: FACS, CHO-cFOLR1 cells

T1 sequence (P15328 other isoform, or with tags, fused parts or gaps limits assumed): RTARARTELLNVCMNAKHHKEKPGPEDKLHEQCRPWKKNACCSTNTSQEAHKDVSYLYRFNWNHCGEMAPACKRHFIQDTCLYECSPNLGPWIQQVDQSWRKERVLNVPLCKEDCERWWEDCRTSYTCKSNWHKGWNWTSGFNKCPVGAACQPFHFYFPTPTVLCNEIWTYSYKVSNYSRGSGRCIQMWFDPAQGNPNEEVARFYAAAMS

Bmax (MFI)	Kd	Binder
22600 MFI	0.44 nM	B1
26400 MFI	0.55 nM	B2
20200 MFI	0.3 nM	B3
23100 MFI	0.3 nM	B4

Biological target: T2, human folate receptor alpha (hFOLR1) (human, UniProt P15328 25-234)
T2 construct: endogenous on FOLR1-positive KB and Igrov1 cells (cell killing); also called human FolR1; FolRα
Assay: FACS, CHO-hFOLR1 cells;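 note: flow cytometry of serially diluted antibodies binding CHO cells stably expressing the receptor, 60 min on ice, mixed with dye-tagged parental CHO as background control, one-site specific fit with Hill slope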

T2 sequence (P15328 25-234 limits assumed): as the sequence (P15328 other isoform, or with tags, fused parts or gaps limits assumed) above, with T2I, R4W, K37R, R117Q, P146A, Y171H counted along it

Bmax (MFI)	Kd	Binder
25900 MFI	0.39 nM	B1
26900 MFI	0.73 nM	B2
24500 MFI	0.47 nM	B3
26800 MFI	0.43 nM	B4

Biological target: T3, murine folate receptor alpha (mouse, UniProt P35846 25-232)
T3 construct: Expressed on the surface of stably transfected CHO cells; also called mouse FolR1; CHO-mouse FolR1
Assay: FACS, CHO-mFOLR1 cells;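 note: flow cytometry binding of serially diluted test antibodies to transfected CHO cells on ice, mean fluorescence intensity, parental CHO cells give background, Kd from one-site specific binding fit with Hill slope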

T3 sequence (P35846 25-232 limits assumed): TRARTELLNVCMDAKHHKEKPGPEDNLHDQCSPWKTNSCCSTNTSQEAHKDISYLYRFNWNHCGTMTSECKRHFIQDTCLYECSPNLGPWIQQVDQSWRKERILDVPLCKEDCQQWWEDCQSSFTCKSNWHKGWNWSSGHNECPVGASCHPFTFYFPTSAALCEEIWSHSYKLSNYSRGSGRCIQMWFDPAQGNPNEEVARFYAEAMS

Bmax (MFI)	Kd	Binder
16500 MFI	0.8 nM	B1
2740 MFI	11 nM	B2
2770 MFI	2.4 nM	B3
3890 MFI	2 nM	B4

Biological target: T2, human folate receptor alpha (hFOLR1)
Assay: cell-based or functional assay

Binder	Igrov, 2° Antibody Cell Killing, Nb-SC239: EC50	Igrov, 2° Antibody Cell Killing, Nb-SC239: Span	KB, 2° Antibody Cell Killing, Nb-239: EC50	KB, 2° Antibody Cell Killing, Nb-239: Span
B1	0.015 nM	71%	0.064 nM	94%
B2	0.015 nM	73%	0.096 nM	93%
B3	–	72%	0.046 nM	93%
B4	0.015 nM	64%	0.052 nM	92%

Biological target: T4, human FOLR1-HIS (human, UniProt P15328 25-233)
T4 construct: Analyte of the Biacore assay; also called FolRα-ECD; extracellular domain of FOLR1; not shown: HIS tag
Assay: SPR (Biacore), antibody captured on anti-Fc, human FOLR1-HIS analyte, 25 C

T4 sequence (P15328 25-233 limits assumed): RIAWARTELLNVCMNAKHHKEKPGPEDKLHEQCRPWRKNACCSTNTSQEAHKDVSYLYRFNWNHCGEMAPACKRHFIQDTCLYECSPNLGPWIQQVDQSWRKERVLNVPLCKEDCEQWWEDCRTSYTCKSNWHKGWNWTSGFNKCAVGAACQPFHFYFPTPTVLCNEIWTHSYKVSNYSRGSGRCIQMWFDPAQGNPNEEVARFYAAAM

Kd	koff	kon	Binder
2.67 nM	0.00183 s⁻¹	688000 M⁻¹ s⁻¹	B5
1.63 nM	–	–	B6
5.19 nM	–	–	B7
6.4 nM	0.00379 s⁻¹	591000 M⁻¹ s⁻¹	B8
7.56 nM	0.00646 s⁻¹	856000 M⁻¹ s⁻¹	B9
4.55 nM	0.00345 s⁻¹	758000 M⁻¹ s⁻¹	B10
7.45 nM	0.00451 s⁻¹	605000 M⁻¹ s⁻¹	B11
6.7 nM	0.00381 s⁻¹	569000 M⁻¹ s⁻¹	B12
9.14 nM	0.00637 s⁻¹	696000 M⁻¹ s⁻¹	B13
1.56 nM	0.00249 s⁻¹	1.6e+06 M⁻¹ s⁻¹	B14
4.71 nM	0.0039 s⁻¹	828000 M⁻¹ s⁻¹	B15
2.11 nM	–	–	B16
4.58 nM	0.00272 s⁻¹	594000 M⁻¹ s⁻¹	B17
2.83 nM	0.00247 s⁻¹	872000 M⁻¹ s⁻¹	B18
1.91 nM	0.0024 s⁻¹	1.25e+06 M⁻¹ s⁻¹	B19
3.18 nM	0.00362 s⁻¹	1.14e+06 M⁻¹ s⁻¹	B20
7.87 nM	0.00522 s⁻¹	664000 M⁻¹ s⁻¹	B21
5.09 nM	0.00226 s⁻¹	444000 M⁻¹ s⁻¹	B22
2.4 nM	0.00157 s⁻¹	656000 M⁻¹ s⁻¹	B23
3.51 nM	0.00251 s⁻¹	716000 M⁻¹ s⁻¹	B24
4.85 nM	0.00679 s⁻¹	1.4e+06 M⁻¹ s⁻¹	B25
4.49 nM	0.00637 s⁻¹	1.42e+06 M⁻¹ s⁻¹	B26
6.21 nM	0.00707 s⁻¹	1.14e+06 M⁻¹ s⁻¹	B27
4.95 nM	0.00558 s⁻¹	1.13e+06 M⁻¹ s⁻¹	B28
17 nM	0.00775 s⁻¹	456000 M⁻¹ s⁻¹	B29
1.99 nM	0.00197 s⁻¹	990000 M⁻¹ s⁻¹	B30
